One may read the Kd as the concentration at which binding is half-saturated. A low value points to a tighter complex.

The labels stand for the following.
T1: rCRR22 (UniProt Q3E6Q1 47-809)
T1 sequence: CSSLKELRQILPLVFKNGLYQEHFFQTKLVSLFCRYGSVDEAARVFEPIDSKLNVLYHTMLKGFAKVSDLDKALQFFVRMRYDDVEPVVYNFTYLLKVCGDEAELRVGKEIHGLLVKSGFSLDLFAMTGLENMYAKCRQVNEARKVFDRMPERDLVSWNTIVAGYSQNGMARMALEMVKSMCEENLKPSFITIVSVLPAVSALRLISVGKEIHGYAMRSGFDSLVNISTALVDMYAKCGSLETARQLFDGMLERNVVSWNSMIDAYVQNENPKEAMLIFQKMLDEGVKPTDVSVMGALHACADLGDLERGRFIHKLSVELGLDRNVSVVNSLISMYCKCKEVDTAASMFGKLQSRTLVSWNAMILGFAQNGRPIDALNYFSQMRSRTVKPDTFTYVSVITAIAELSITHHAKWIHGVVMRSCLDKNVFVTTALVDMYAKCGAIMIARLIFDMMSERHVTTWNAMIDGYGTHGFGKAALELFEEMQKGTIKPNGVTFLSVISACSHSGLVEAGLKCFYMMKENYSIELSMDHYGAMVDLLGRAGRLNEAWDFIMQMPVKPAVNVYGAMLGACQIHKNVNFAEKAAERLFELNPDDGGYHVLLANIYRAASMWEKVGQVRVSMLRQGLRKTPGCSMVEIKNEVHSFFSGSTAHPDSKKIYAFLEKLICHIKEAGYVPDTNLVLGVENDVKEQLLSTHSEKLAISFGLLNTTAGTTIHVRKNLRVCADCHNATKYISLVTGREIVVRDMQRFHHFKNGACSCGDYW

B1: ndhG1S2 (ssRNA)
RNA: UUUUUCUGGGAUC
B2: ndhB9S2 (ssRNA)
RNA: CUGCUUCAGCUUC
B3: ndhG1S (ssRNA)
RNA: UAGUUUUUCUGGGAUC
B4: ndhB9S (ssRNA)
RNA: UAGCUGCUUCAGCUUC
B5: ndhG1L (ssRNA)
RNA: CCUGGACCAAUACAUGAUUUUCUUUUAGUUUUUCUGGGAUCCGGUCUUCUA
B6: ndhB9L (ssRNA)
RNA: GCUUUUCUUUCUGUUACUUCGAAAGUAGCUGCUUCAGCUUCAGCCACUCGA
B7: ndhD5L (ssRNA)
RNA: GUCGGUACAAUCCAAAUAAUUUAUGCAGCUUCAACAUCUCCCGGUCAACGU
B8: ndhD5S (ssRNA)
RNA: UUAUGCAGCUUCAACAUCUCC
B9: ndhB7L (ssRNA)
RNA: AUCACUGUAGGAAUUGGGUUCAAGCUUUCCCUAGCCCCUUCUCAUCAAUGG
B10: rpoB3S2 (ssRNA)
RNA: AAUUCGUGUAUAUAUUUC
B11: ndhB7S (ssRNA)
RNA: CAAGCUUUCCCUAGCCCCUUC
B12: rpoB3S (ssRNA)
RNA: AAUAAUUCGUGUAUAUAUUUC
B13: rpoB3L (ssRNA)
RNA: GGUUCAAGUUAUAACCCAGAAAUAAUUCGUGUAUAUAUUUCACAGAAACGU
B14: ndhB7S2 (ssRNA)
RNA: GCUUUCCCUAGCCCCUUC
B15: ndhD5S2 (ssRNA)
RNA: UGCAGCUUCAACAUCUCC
B16: ndhD1 (ssRNA)
RNA: GACCUGGUGUAUCUUGUCUUUACCACGAAUGAUUUU
B17: ndhD2 (ssRNA)
RNA: GCAAUGUACAGCGGUCAAAUAGGAUCAUUUUCUUCU
B18: ycf1 (ssRNA)
RNA: UAACUGUCCUAGCUCUACCG

T2 sequence (Q9LN01 41-741): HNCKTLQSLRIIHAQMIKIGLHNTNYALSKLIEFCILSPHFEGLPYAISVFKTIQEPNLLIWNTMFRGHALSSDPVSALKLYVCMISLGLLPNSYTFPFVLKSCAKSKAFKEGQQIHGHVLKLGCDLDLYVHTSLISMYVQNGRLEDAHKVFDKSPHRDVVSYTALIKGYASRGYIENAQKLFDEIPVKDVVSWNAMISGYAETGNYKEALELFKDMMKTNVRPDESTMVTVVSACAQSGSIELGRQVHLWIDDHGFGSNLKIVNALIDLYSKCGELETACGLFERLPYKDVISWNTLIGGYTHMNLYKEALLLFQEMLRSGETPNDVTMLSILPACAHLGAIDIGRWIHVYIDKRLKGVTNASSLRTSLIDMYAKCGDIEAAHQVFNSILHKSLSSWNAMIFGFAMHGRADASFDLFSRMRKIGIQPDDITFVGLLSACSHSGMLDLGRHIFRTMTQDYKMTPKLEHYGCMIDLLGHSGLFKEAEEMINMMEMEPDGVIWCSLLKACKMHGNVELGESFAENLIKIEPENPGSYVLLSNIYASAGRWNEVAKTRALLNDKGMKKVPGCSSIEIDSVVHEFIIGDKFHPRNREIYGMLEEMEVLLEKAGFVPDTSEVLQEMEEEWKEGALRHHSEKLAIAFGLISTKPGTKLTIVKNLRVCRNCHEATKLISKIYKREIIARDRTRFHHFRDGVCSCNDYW

The first data set addresses T2, rOTP82 (UniProt Q9LN01 41-741). The experiment in a line: EMSA. In general terms: Mobility shift assays separate free from complexed probe on a gel.
As to B1, binding was put at a Kd of 167 nM.
Regarding B2, the Kd was 119 nM.
The same measure, in the same setting: to B3 belongs 12.2 nM; to B4, 9.7 nM.
B5: the binding result was “binds”.
For B6, the binding result is listed as “binds”.

The target in the next data set is T1, rCRR22. The experiment in a line: EMSA.
For B7, the binding result is on record as “binds”.
Take B8: the equilibrium dissociation constant (Kd) was found to be 10.8 nM.
For B9, the binding result was “binds”.
B10 had a dissociation constant (Kd) of 18.9 ± 3.1 nM.
B11: binding was put at a Kd of 9.2 nM.
The same measure, in the same setting: as for B12, the figure is 13.5 ± 2.5 nM.
For B13, the binding result was “binds”.
Molecule B14 registered a Kd of 70 nM.
The same measure, in the same setting: as for B15, the figure is 96.2 nM.

For the next data set, the target named is T2, rOTP82. The experiment in a line: EMSA. This is another data set of the same source.
Regarding B16, the binding result is on record as “no binding”.
Turning to B17, the binding result was “no binding”.

A further data set deals with T1, rCRR22. Nature of the data set: EMSA. The source holds these as a separate data set.
Regarding B16, the binding result is given as “no binding”.
For the molecule B18, the binding result is listed as “no binding”.

Source of the values: article PMC3367199.
